Test results as given in patent US20210009663A1 (published 2021).

B1: mAb 8 (antibody, V domains shown)
VH: EVQLLESGGGLVQPGGSLRLSCAASGFSFSTYSMHWVRQAPGKGLEWVSAISGEGDSAYYADSVKGRFTISRDNSKNTLYLQMNKVRAEDTAVYYCVGGYSNFYYYYTMDAWGQGTMVTVSS
VL: DIVMTQSPASLSLSPGERATLSCRATQSISTFLAWYQQKPGQAPRLLIYDASTRASGIPARFSGSRSGTDFTLTITRLEPEDFAVYYCQQRYNWPPYSFGQGTKLEIK
B2: fusion loop targeting pan-flavivirus antibody 4G2 (antibody, V domains shown)
VH: EVQLQQSGPELVKPGTSVKISCKTSGYTFTEYTIHWVKQSHGKSLAWIGGIDPNSGGTNYSPNFKGKATLTVDKSSSTAYMDLRSLSSEDSAVYFCARIYHYDGYFDVWGAGTAVTVSS
VL: DIKMTQSPSSMYASLGERVTITCKASQDINSYLTWFQQKPGKSPKTLIYRANRLIDGVPSRFSGSGSGQDYSLTISSLDYEDMGIYYCLQYDEFPPTFGGGTKLEIKR

Tests used:
[1] = target: T1, Zika virus envelope protein, strain H/PF/2013 (French Polynesia 2013) (Zika virus); assay: cell-based or functional assay
[2] = target: T1, Zika virus envelope protein, strain …

T1 sequence (A0A024B7W1 291-794): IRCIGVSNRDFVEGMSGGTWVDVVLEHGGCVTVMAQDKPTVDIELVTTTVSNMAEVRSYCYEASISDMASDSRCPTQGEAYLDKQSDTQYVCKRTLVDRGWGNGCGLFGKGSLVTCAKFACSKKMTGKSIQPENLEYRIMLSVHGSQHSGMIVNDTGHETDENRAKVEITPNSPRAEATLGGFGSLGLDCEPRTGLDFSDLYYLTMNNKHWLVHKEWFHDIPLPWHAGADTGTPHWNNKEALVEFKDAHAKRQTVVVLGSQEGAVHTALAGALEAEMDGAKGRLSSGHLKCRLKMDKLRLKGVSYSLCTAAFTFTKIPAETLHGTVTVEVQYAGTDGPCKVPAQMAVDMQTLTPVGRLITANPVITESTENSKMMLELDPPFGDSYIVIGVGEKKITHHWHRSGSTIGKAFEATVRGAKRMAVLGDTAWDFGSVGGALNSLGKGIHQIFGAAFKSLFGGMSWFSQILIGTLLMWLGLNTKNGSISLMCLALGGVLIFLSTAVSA

Row | Binder | ADE in THP1.2S cells, viral titers at peak enhancement [1] [fold] | PRNT50 [1] [µg/mL] | Kd [2] [µg/mL]
1 | B1 | ≥ 3 | 5.09 | 
2 | B2 |  |  | 10.3
